Measurements from PMC8866124, “Visualizing protein breathing motions associated with aromatic ring flipping” (Nature, 2022).

Target: the molecule itself
Test: crystal structure; wild-type JIP1-SH3 at 20 mg/ml; crystals in 0.1 M HEPES pH 7.5, 1-5% PEG 400, 2-2.5 M ammonium sulfate, 20 °C, hanging drop; molecular replacement with PDB 2FPE chains A-B

B1: SH3 domain of the JNK-interacting protein 1 (JIP1), wild type (domain or fragment, human)
chain: GHMEQTHRAIFRFVPRHEDELELEVDDPLLVELQAEDYWYEAYNMRTGARGVFPAYYAIEVTK
notes: N-terminal extension left on the protein after cleavage by the TEV protease; Called dimeric in the legends; The wild-type structure was solved by molecular replacement with chains A-B of PDB 2FPE; also called JIP1-SH3; JIP1-SH3(WT); not shown: His6, N-terminal, cleaved
  binding result: binds
